# Source: patent US10342879B2, “Carrier nanoparticles and related compositions, methods and systems” (California Institute of Technology, priority 2008, dated 2019)
# Experiment: Effective diameter by dynamic light scattering in double distilled water
# Format: physicochemical
# Settings: DLS
# Experimental: 3 successive runs of 1 min each were subsequently recorded and averaged. […] 10 successive automated runs at target residuals of 0.012 were then performed and results averaged (FIG. 14).
substance,measurement,value
Poly(Mucic Acid-DiCys-PEG)-CPT conjugate,share of the total particle population in the predominant distribution,60%
